Test results reported in patent US20090041763A1 (UNIVERSITY OF ULSAN FOUNDATION FOR INDUSTRY COOPERATION, published 2009).

Target: T1, 4-1BB-GST fusion protein (human 4-1BB fused to glutathione-S-transferase, expressed in E. coli) (human, UniProt Q07011 24-186)
T1 construct: The order of the parts follows the printed name 4-1BB-GST; not shown: glutathione-S-transferase (GST) from the pGEX3 vector (Pharmacia)
Assay: ELISA, transfectant culture supernatant on 4-1BB-GST antigen; reference is 293 EBNA cultured supernatant
Method: The completely humanized sequence to constant region was subcloned to pcDNA, a eukaryote expressing vectors, transfected into 293EBNA cells and serial analyses i.e., ELISA and western blotting analysis were performed using by the cell medium. 4-1BB-GST was used as an antigen for ELISA and each 50 numbers of transfectant medium was used therein.

B1: completely humanized antibody HBBK4-75 (H2L2) (antibody, V domains shown)
VH: QVQLQQSGAEVIKPGASVKLSCKASGYTFSSYWMHWVRQAPGQGLEWIGEINPGNGHTNYNEKFKSRATLTGDTSTSTVYMELSSLRSEDTAVYYCARSFTTARAFAYWGQGTLVTVSS
VL: DIVMTQSPAFLSVTPGEKVTITCRASQTISDYLHWYQQKPDQAPKLLIKYASQSISGIPSRFSGSGSGTDFTFTISSLEAEDAATYYCQDGHSFPPTFGQGTKLEIKT
notes: the VH is the same in both; also called clone 75; HBBK4-75/pcDNA
- fold over negative control (ELISA): ~15 times
